Laboratory results from paper PMC11332825, “Residues in the fructose-binding pocket are required for ketohexokinase-A activity” (The Journal of Biological Chemistry, 2024).
Positions count from the first letter of the chain named. In names and notes the source's numbering stands.

Molecular target: the molecule itself
Assay: mass photometry; 100 nM protein diluted in PBS (pH 7.4), room temperature, 60 s acquisition, TwoMP mass photometer; monomer to dimer

B1: human ketohexokinase-A (KHK-A), wild type (enzyme)
chain: QILCVGLVVLDVISLVDKYPKEDSEIRCLSQRWQRGGNASNSCTVLSLLGAPCAFMGSMAPGHVADFVLDDLRRYSVDLRYTVFQTTGSVPIATVIINEASGSRTILYYDRSLPDVSATDFEKVDLTQFKWIHIEGRNASEQVKMLQRIDAHNTRQPPEQKIRVSVEVEKPREELFQLFGYGDVVFVSKDVAKHLGFQSAEEALRGLYGRVRKGAVLVCAWAEEGADALGPDGKLLHSDAFPPPRVVDTLGAGDTFNASVIFSLSQGRSVQEALRFGCQVAGKKCGLQGFDGIV
notes: ketohexokinase, splice isozyme A (KHK-A), human; good electron density for residues 3 to 298; theoretical molecular weight of the monomer printed as 34.65 kDa; Cloned into pET-28b(+) by GenScript; also called WT KHK-A; WT; source: E. coli BL21-CodonPlus-RIL, purified (Ni-NTA, Superdex 200 gel filtration)
stoichiometry N: 2

B2: human ketohexokinase-A N42A (enzyme)
chain: B1 chain with N38A
notes: ketohexokinase, splice isozyme A (KHK-A), human, with N42A; Expressed and purified as described for WT KHK-A; PDB 2HLZ is the wild-type parent; also called KHK-A N42A; source: E. coli BL21-CodonPlus-RIL, purified (Ni-NTA, Superdex 200 gel filtration)
stoichiometry N: 2

B3: human ketohexokinase-A R141E/K174A double mutant (enzyme)
chain: B1 chain with R137E, K170A
notes: ketohexokinase, splice isozyme A (KHK-A), human, with R141E and K174A; Expressed and purified as described for WT KHK-A; PDB 2HLZ is the wild-type parent; source: E. coli BL21-CodonPlus-RIL, purified (Ni-NTA, Superdex 200 gel filtration)
stoichiometry N: 2

B4: human ketohexokinase-A N42K (enzyme)
chain: B1 chain with N38K
notes: ketohexokinase, splice isozyme A (KHK-A), human, with N42K; Expressed and purified as described for WT KHK-A; PDB 2HLZ is the wild-type parent; source: E. coli BL21-CodonPlus-RIL, purified (Ni-NTA, Superdex 200 gel filtration)
stoichiometry N: 2

B5: human ketohexokinase-A D15A (enzyme)
chain: B1 chain with D11A
notes: ketohexokinase, splice isozyme A (KHK-A), human, with D15A; Expressed and purified as described for WT KHK-A; PDB 2HLZ is the wild-type parent; also called KHK-A D15A; source: E. coli BL21-CodonPlus-RIL, purified (Ni-NTA, Superdex 200 gel filtration)
stoichiometry N: 2

B6: human ketohexokinase-A R141E (enzyme)
chain: B1 chain with R137E
notes: ketohexokinase, splice isozyme A (KHK-A), human, with R141E; Results and legends print R141E; the abstract and the discussion speak of R141A / alanine at R141; PDB 2HLZ is the wild-type parent; source: E. coli BL21-CodonPlus-RIL, purified (Ni-NTA, Superdex 200 gel filtration)
stoichiometry N: 2

B7: human ketohexokinase-A N45A (enzyme)
chain: B1 chain with N41A
notes: ketohexokinase, splice isozyme A (KHK-A), human, with N45A; Expressed and purified as described for WT KHK-A; PDB 2HLZ is the wild-type parent; source: E. coli BL21-CodonPlus-RIL, purified (Ni-NTA, Superdex 200 gel filtration)
stoichiometry N: 2

B8: human ketohexokinase-A K174A (enzyme)
chain: B1 chain with K170A
notes: ketohexokinase, splice isozyme A (KHK-A), human, with K174A; Expressed and purified as described for WT KHK-A; PDB 2HLZ is the wild-type parent; source: E. coli BL21-CodonPlus-RIL, purified (Ni-NTA, Superdex 200 gel filtration)
stoichiometry N: 2
